From paper PMC10520678

Key:
TRIM21 [1] = molecular target: TRIM21 (UniProt P19474); assay: anti-Flag co-IP, TRIM21 blot; details: reference: wild type, EGF-treated; sites Y288
TRIM21 [2] = molecular target: TRIM21 (UniProt P19474); assay: co-IP, blot; details: reference: wild type CD47, c-Src CA expressed; sites Y288

| Substance | binding against the reference (TRIM21 [1]) | binding against the reference (TRIM21 [2]) |
| --- | --- | --- |
| CD47 (from UniProt Q08722) Y288F, EGF-treated | stronger | – |
| CD47 (from UniProt Q08722) Y288F, c-Src CA expressed | – | stronger |
